Experimental data reported in doi:10.1101/2021.05.21.445118.

Tests used:
Experiment in all cases: SPR
[1] = molecular target: human extracellular ACE2 p.Glu329Gly (human) (UniProt Q9BYF1)
[2] = molecular target: human extracellular ACE2 p.Glu35Lys (human) (UniProt Q9BYF1)
[3] = molecular target: human extracellular ACE2 p.Lys26Arg (human) (UniProt Q9BYF1)
[4] = molecular target: human extracellular ACE2 p.Ser19Pro (human) (UniProt Q9BYF1)

Substance: SARS-CoV-2 Spike receptor binding domain (from UniProt P0DTC2) (domain or fragment)
- ΔΔG against WT ACE2 [1]: -0.377 kJ/mol
- ΔΔG against WT ACE2 [2]: -1.51 kJ/mol
- ΔΔG against WT ACE2 [3]: 1.09 kJ/mol
- ΔΔG against WT ACE2 [4]: 2.47 kJ/mol
